Laboratory results from US20220098307A1 (WUHAN YZY BIOPHARMA, published 2022).

Experiments:
Monkey CD3 = target: T1, Monkey CD3 (monkey); test: flow cytometry, monkey T cells
T1 construct: whole, on cells; also called CD3 of monkey CD3 positive T cells

Human CD3ε = target: T2, Human CD3ε (human, UniProt P07766 23-126); test: flow cytometry, human T cells
T2 construct: CD3 on T cells isolated from human whole blood
How it was run: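 Mean fluorescence intensity by flow cytometry was plotted against antibody concentration; EC50 came from a one site–specific binding fit. Cells (2×10⁵/well) were incubated with 11-point, 3-fold antibody dilutions starting at 3000 nM for 2 h at 4° C, then with PE anti-human IgG Fc for 1 h.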

Human BCMA = target: T3, Human BCMA (human, UniProt Q02223 1-54); test: flow cytometry, human tumor cells (table of the BCMA series)
T3 sequence: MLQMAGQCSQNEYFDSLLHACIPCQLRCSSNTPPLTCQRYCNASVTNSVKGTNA
From the text: 1) Cell preparation: T cells isolated from CD3-positive human whole blood were used for a CD3 end affinity detection of multifunctional antibody molecule; positive tumor cells of corresponding antigen were used for detecting affinity of tumor antigen; for example, CD38-positive MM. 1S cells (purchased from the Cell Resource Center of Shanghai Institutes for Biological Sciences, Chinese Academy of Sciences) or RPMI 8226 cells (purchased from the Cell Resource Center of Shanghai Institutes for Biological Sciences, Chinese Academy of Sciences) were used for CD38 antigen detection, and PD-L1 positive H358 cells (purchased from the Cell Resource Center of Shanghai Institutes for Biological Sciences, Chinese Academy of Sciences) were used for PD-L1 antigen detection, and so on. The cells were resuspended with 1% FBS-PBS, adjusted to a density of 4×10⁶/ml, and 50 μl of cells were taken from each well, and then plated at 2×10⁵ per well. Cell plating was operated on ice
2) Addition of the antibody: according to the experimental design, the antibody was diluted gradually, and dilution of antibody was operated on ice. For example, the initial concentration of antibody for dilution was 3000 nM, and the antibody was diluted by 3 times with 11 concentration gradients. The diluted antibody was added to a cell well at 50 μl per well, mixed well, and shaked and incubated at 4° C. 1100 rpm/min for 2 h; after washing, the cells were resuspend in 1% FBS-PBS, and a diluted secondary antibody PE anti-human IgG FC (Biolegend, 409304) was added with a final concentration of 8 ug/ml and a volume of 50 μl/well. At the same time, a well only added with cells and secondary antibody was set as a control, the components were mixed well, and incubated under shaking at 1100 rpm/min at 4° C. for 1 h;
5) Data analysis: the data was analyzed by a flow analysis software FlowJo 7.6 thereby obtaining an average fluorescence intensity of the specific antibody concentration, plotted by a Graphpad Prism 5 with the antibody concentration (nM) as an abscissa and the average fluorescence intensity as an ordinate; the EC50 value was calculated by the method of One site—Specific binding, and the EC50 value indicated the cell affinity of the antibody to the corresponding target antigen.

B1: M2IC-NA (bispecific antibody, human IgG1, kappa, N297A)
chain: EVKLDETGGGLVQPGRPMKLSCVASGFTFSDYWMNWVRQSPEKGLEWVAQIRNKPYNYETYYSDSVKGRFTISRDDSKSSVYLQMNNLRVEDMGIYYCTGSYYGMDYWGQGTSVTVSSASTKGPSVFPLAPSSKSTSGGTAALGCLVKDYFPEPVTVSWNSGALTSGVHTFPAVLQSSGLYSLSSVVTVPSSSLGTQTYICNVNHKPSNTKVDKKVEPKSCDKTHTGGGSAAAQVQLVESGGGVVQPGRSLRLSCAASGFTFSTYAMNWVRQAPGKGLEWVARIRSKYNNYATYYADSVKDRFTISRDDSKNTLYLQMNSLRAEDTAVYYCARHGNFGNSYVSWFAYWGQGTLVTVSSGGGGSGGGGSGGGGSQTVVTQEPSLTVSPGGTVTLTCRSSTGAVTTSNYANWVQQKPGQAPRGLIGGTNKRAPGVPARFSGSLLGGKAALTLSGVQPEDEAEYYCALWYSNLWVFGGGTKVEIKGGGGSDKTHTCPPCPAPELLGGPSVFLFPPKPKDTLMISRTPEVTCVVVDVSHEDPEVKFNWYVDGVEVHNAKTKPREEQYASTYRVVSVLTVLHQDWLNGKEYKCKVSNKALPAPIEKTISKAKGQPREPQVYTLPPCRDELTKNQVSLWCLVKGFYPSDIAVEWESNGQPENNYKTTPPVLDSDGSFFLYSKLTVDKSRWQQGNVFSCSVMHEALHNHYTQKSLSLSPGK
heavy: EVKLDETGGGLVQPGRPMKLSCVASGFTFSDYWMNWVRQSPEKGLEWVAQIRNKPYNYETYYSDSVKGRFTISRDDSKSSVYLQMNNLRVEDMGIYYCTGSYYGMDYWGQGTSVTVSSASTKGPSVFPLAPSSKSTSGGTAALGCLVKDYFPEPVTVSWNSGALTSGVHTFPAVLQSSGLYSLSSVVTVPSSSLGTQTYICNVNHKPSNTKVDKKVEPKSCDKTHTCPPCPAPELLGGPSVFLFPPKPKDTLMISRTPEVTCVVVDVSHEDPEVKFNWYVDGVEVHNAKTKPREEQYASTYRVVSVLTVLHQDWLNGKEYKCKVSNKALPAPIEKTISKAKGQPREPQVCTLPPSRDELTKNQVSLSCAVKGFYPSDIAVEWESNGQPENNYKTTPPVLDSDGSFFLVSKLTVDKSRWQQGNVFSCSVMHEALHNRFTQKSLSLSPGK
light: DVVMTQTPLSLPVSLGDQASISCRSSQSLVHSNGNTYLRWYLQKPGQSPKVLIYKVSNRFSGVPDRFSGSGSGTDFTLKISRVEAEDLGVYFCSQSTHVPWTFGGGTKLEIKRTVAAPSVFIFPPSDEQLKSGTASVVCLLNNFYPREAKVQWKVDNALQSGNSQESVTEQDSKDSTYSLSSTLTLSKADYEKHKVYACEVTHQGLSSPVTKSFNRGEC
notes: structure 2 isotype control; CH2 N297A
Monkey CD3
  EC50: 561 nM
Human CD3ε
  EC50: 547 nM
Human BCMA
  binding result: no binding

B2: M2IC-G2 (bispecific antibody, human IgG1, kappa)
chain: EVKLDETGGGLVQPGRPMKLSCVASGFTFSDYWMNWVRQSPEKGLEWVAQIRNKPYNYETYYSDSVKGRFTISRDDSKSSVYLQMNNLRVEDMGIYYCTGSYYGMDYWGQGTSVTVSSASTKGPSVFPLAPSSKSTSGGTAALGCLVKDYFPEPVTVSWNSGALTSGVHTFPAVLQSSGLYSLSSVVTVPSSSLGTQTYICNVNHKPSNTKVDKKVEPKSCDKTHTGGGSAAAQVQLVESGGGVVQPGRSLRLSCAASGFTFSTYAMNWVRQAPGKGLEWVARIRSKYNNYATYYADSVKDRFTISRDDSKNTLYLQMNSLRAEDTAVYYCARHGNFGNSYVSWFAYWGQGTLVTVSSGGGGSGGGGSGGGGSQTVVTQEPSLTVSPGGTVTLTCRSSTGAVTTSNYANWVQQKPGQAPRGLIGGTNKRAPGVPARFSGSLLGGKAALTLSGVQPEDEAEYYCALWYSNLWVFGGGTKVEIKGGGGSDKTHTCPPCPAPPVAGPSVFLFPPKPKDTLMISRTPEVTCVVVDVSHEDPEVQFNWYVDGVEVHNAKTKPREEQFNSTFRVVSVLTVVHQDWLNGKEYKCKVSNKGLPAPIEKTISKTKGQPREPQVYTLPPCRDELTKNQVSLWCLVKGFYPSDIAVEWESNGQPENNYKTTPPVLDSDGSFFLYSKLTVDKSRWQQGNVFSCSVMHEALHNHYTQKSLSLSPGK
heavy: EVKLDETGGGLVQPGRPMKLSCVASGFTFSDYWMNWVRQSPEKGLEWVAQIRNKPYNYETYYSDSVKGRFTISRDDSKSSVYLQMNNLRVEDMGIYYCTGSYYGMDYWGQGTSVTVSSASTKGPSVFPLAPSSKSTSGGTAALGCLVKDYFPEPVTVSWNSGALTSGVHTFPAVLQSSGLYSLSSVVTVPSSSLGTQTYICNVNHKPSNTKVDKKVEPKSCDKTHTCPPCPAPPVAGPSVFLFPPKPKDTLMISRTPEVTCVVVDVSHEDPEVQFNWYVDGVEVHNAKTKPREEQFNSTFRVVSVLTVVHQDWLNGKEYKCKVSNKGLPAPIEKTISKTKGQPREPQVCTLPPSRDELTKNQVSLSCAVKGFYPSDIAVEWESNGQPENNYKTTPPVLDSDGSFFLVSKLTVDKSRWQQGNVFSCSVMHEALHNRFTQKSLSLSPGK
light: DVVMTQTPLSLPVSLGDQASISCRSSQSLVHSNGNTYLRWYLQKPGQSPKVLIYKVSNRFSGVPDRFSGSGSGTDFTLKISRVEAEDLGVYFCSQSTHVPWTFGGGTKLEIKRTVAAPSVFIFPPSDEQLKSGTASVVCLLNNFYPREAKVQWKVDNALQSGNSQESVTEQDSKDSTYSLSSTLTLSKADYEKHKVYACEVTHQGLSSPVTKSFNRGEC
notes: structure 2 isotype control; CH2 G2CH2
Monkey CD3
  EC50: 488 nM
Human CD3ε
  EC50: 408 nM
Human BCMA
  binding result: no binding

B3: M2IC-AG2 (bispecific antibody, human IgG1, kappa)
chain: EVKLDETGGGLVQPGRPMKLSCVASGFTFSDYWMNWVRQSPEKGLEWVAQIRNKPYNYETYYSDSVKGRFTISRDDSKSSVYLQMNNLRVEDMGIYYCTGSYYGMDYWGQGTSVTVSSASTKGPSVFPLAPSSKSTSGGTAALGCLVKDYFPEPVTVSWNSGALTSGVHTFPAVLQSSGLYSLSSVVTVPSSSLGTQTYICNVNHKPSNTKVDKKVEPKSCDKTHTGGGSAAAQVQLVESGGGVVQPGRSLRLSCAASGFTFSTYAMNWVRQAPGKGLEWVARIRSKYNNYATYYADSVKDRFTISRDDSKNTLYLQMNSLRAEDTAVYYCARHGNFGNSYVSWFAYWGQGTLVTVSSGGGGSGGGGSGGGGSQTVVTQEPSLTVSPGGTVTLTCRSSTGAVTTSNYANWVQQKPGQAPRGLIGGTNKRAPGVPARFSGSLLGGKAALTLSGVQPEDEAEYYCALWYSNLWVFGGGTKVEIKGGGGSDKTHTCPPAPAPPVAGPSVFLFPPKPKDTLMISRTPEVTCVVVDVSHEDPEVQFNWYVDGVEVHNAKTKPREEQFNSTFRVVSVLTVVHQDWLNGKEYKCKVSNKGLPAPIEKTISKTKGQPREPQVYTLPPCRDELTKNQVSLWCLVKGFYPSDIAVEWESNGQPENNYKTTPPVLDSDGSFFLYSKLTVDKSRWQQGNVFSCSVMHEALHNHYTQKSLSLSPGK
heavy: EVKLDETGGGLVQPGRPMKLSCVASGFTFSDYWMNWVRQSPEKGLEWVAQIRNKPYNYETYYSDSVKGRFTISRDDSKSSVYLQMNNLRVEDMGIYYCTGSYYGMDYWGQGTSVTVSSASTKGPSVFPLAPSSKSTSGGTAALGCLVKDYFPEPVTVSWNSGALTSGVHTFPAVLQSSGLYSLSSVVTVPSSSLGTQTYICNVNHKPSNTKVDKKVEPKSCDKTHTCPPAPAPPVAGPSVFLFPPKPKDTLMISRTPEVTCVVVDVSHEDPEVQFNWYVDGVEVHNAKTKPREEQFNSTFRVVSVLTVVHQDWLNGKEYKCKVSNKGLPAPIEKTISKTKGQPREPQVCTLPPSRDELTKNQVSLSCAVKGFYPSDIAVEWESNGQPENNYKTTPPVLDSDGSFFLVSKLTVDKSRWQQGNVFSCSVMHEALHNRFTQKSLSLSPGK
light: DVVMTQTPLSLPVSLGDQASISCRSSQSLVHSNGNTYLRWYLQKPGQSPKVLIYKVSNRFSGVPDRFSGSGSGTDFTLKISRVEAEDLGVYFCSQSTHVPWTFGGGTKLEIKRTVAAPSVFIFPPSDEQLKSGTASVVCLLNNFYPREAKVQWKVDNALQSGNSQESVTEQDSKDSTYSLSSTLTLSKADYEKHKVYACEVTHQGLSSPVTKSFNRGEC
notes: structure 2 isotype control; CH2 AG2CH2
Monkey CD3
  EC50: 607 nM
Human CD3ε
  EC50: 535 nM
Human BCMA
  binding result: no binding
